Test results reported in US20180128830A1, “DETECTION OF HUMAN CYTOMEGALOVIRUS IN BREAST CANCER” (priority 2015, published 2018).

Tests used:
[1] = tested on: Stat3; assay: Cell-based Stat3 ELISA; parameters: species or system human; settings: varying doses, 15 min
Protocol: For the Stat3 ELISA, cells were seeded into 96-well dishes at a density of 1×10^4 cell per well, treated with varying doses of cmvIL-10 in triplicate for 15 min, and then lysed in the plate and assayed for total or pStat3 using the Cell-based Stat3 ELISA kit according to manufacturer's instructions (R&D Systems). The detection of hIL-10 in supernatants from MDA-MB-231 cell cultures was performed using the IL-10 ELISA DuoSet kit as directed (R&D Systems).

[2] = tested on: MDA-MB-231 cells; assay: Matrigel invasion toward EGF; assay type: cell-based, human; settings: 100 ng/ml, 22 hours
Protocol: Transwell migration was monitored using 96-well BD Fluoroblock plates with 8 μm filters (Corning, Inc., Corning, N.Y.). Cells were harvested and suspended at density of 2.0×10^6 cells/ml in migration media (L-15+1% FBS), and a volume of 75 μl cell suspension was placed on top of the filter inserts. Where indicated, IL-10R neutralizing antibody was added at a concentration of 30 μg/ml. […] After 5 hrs at 37° C., cells that traversed the filter and entered the lower chamber were quantified by the addition of Cell Titer Glo (Promega, Madison, Wis.) using a Turner Veritas luminometer. For invasion, 96-well matrigel-coated BD Fluoroblock transwell invasion plates (Corning) were used. Invasion plates were re-hydrated with warm media at 37° C. for 3 hrs and then 75 μl cell suspension loaded onto the hydrated filters as described above. Where indicated, 10 μM Stat3 inhibitor was included with cells in the top chamber; cmvIL-10, hIL-10 or conditioned medium was present in both chambers. […] At harvest, cells that had degraded the matrigel and entered the lower chamber were quantified by the addition of Cell Titer Glo as above.

[3] = tested on: MTSS1; assay: MTSS1 immunoblotting; assay type: cell-based, human; settings: 10 ng/mL, beyond 24 hours
Protocol: Confluent T-75 flasks of MDA-MB-231 cells were treated with 10 ng/mL cmvIL-10 (R&D systems) for the indicated times, then scraped and harvested into cell lysis buffer (150 mM NaCl, 20 mM HEPES, 0.5% Triton-X-100, 1.0 mM NaOV4, 1.0 mM EDTA, 0.1% NaN3) containing 1× protease inhibitors (Calbiochem). Cell lysates were clarified via centrifugation, heated at 70° C. for 10 min in reducing buffer, and the proteins separated on a 4-12% Tris-Base SDS-PAGE gel (Life Technologies, Grand Island, N.Y.). After transfer to nitrocellulose, the membrane was incubated in blocking solution (5% milk+TBS) for 1 hr at room and then probed with primary antibody: 1:1000 dilution for MMP-3 or MTSS-1 antibodies (Santa Cruz), or MAPK antiserum (Cell Signaling Tech, Danvers, Mass.), in blocking solution overnight, oscillating on a platform rocker at 4.0° C. After three washes, the membranes were incubated with a 1:2000 dilution of appropriate AP-conjugated secondary antibody on a platform rocker at room temperature for 1 hr. Protein bands were detected using western blue stabilized AP substrate (Promega, Madison, Wis.). For zymography, cell lysates were denatured in SDS buffer under non-reducing conditions without heat, and run on a 4-16% Zymogram gel using Tris-Glycine SDS running buffer according to manufacturer's instructions. […]

[4] = tested on: MTSS1; assay: MTSS1 immunofluorescence microscopy; assay type: cell-based, human; settings: 100 ng/mL, 96 hrs
Protocol: MDA-MB-231 cells were seeded onto FBS-coated glass coverslips at a density of 2.0×10^5 cells/well and cultured for 48 hrs at 37° C. Cells were treated with 100 ng/mL of purified recombinant cmvIL-10 for 96 hrs, then fixed with 2% paraformaldehyde in DPBS for 20 min, washed, permeabilized with 0.2% Triton-X-100 in PBS for 15 min. The cells were washed and blocked with 10% FBS for 1 hr at 37° C., then incubated with anti-MTSS-1 antibody at a 1:100 dilution for 1 hr at 37° C. followed by the addition of goat anti-mouse TRITC secondary antibody at a 1:150 dilution for 30 min (Life Technologies) and Alexa Fluor 488 phalloidin (Molecular Probes, Eugene, Oreg.). Coverslips were washed and excess fluid was removed before inverting the coverslip onto a glass slide containing 20 μL of DAPI-containing Prolong Gold mounting medium (Life Technologies, Grand Island, N.Y.). Images were taken on a Zeiss AX10 Imager.A1 microscope (Carl Zeiss Inc., Oberkochen, Germany) using AxioVision 4.7.2 imaging software.

B1: cmvIL-10 (protein)
chain: ATTTTIKNTKPQCRPEDYATRLQDLRVTFHRVKPTLQREDDYSVWLDGTVVKGCWGCSVMDWLLRRYLEIVFPAGDHVYPGLKTELHSMRSTLESIYKDMRQCPLLGCGDKSVISRLSQEAERKSDNGTRKGLSELDTLFSRLEEYLHSRK
- amount of Stat3 phosphorylation (pStat3 to total Stat3) [1]: increased in a dose-dependent manner
- invasion through matrigel compared with hIL-10 [2]: significantly greater extent than hIL-10
- invasion through matrigel toward EGF [2]: strong enhancer of cell invasion
- MTSS1 protein (82 kD band) [3]: significant decrease in MTSS1 expression
- MTSS1 protein (immunofluorescence) [4]: dramatic reduction in the amount of MTSS1 protein
